Assays:
huFcγRIIA R131 (human) = huFcγRIIA R131 (human) (UniProt P12318); experiment: SPR, Biacore T200
huFcγRIIIA F158 (human) = huFcγRIIIA F158 (human) (UniProt P08637); experiment: SPR, Biacore T200
[1] = molecular target: recombinant mouse GITR (plate-bound) (mouse) (UniProt O35714); experiment: ELISA, plate-bound recombinant mouse GITR, absorbance 450 nm against log(conc. ug/ml)
[2] = molecular target: human FcγRIIIA soluble ectodomain (ELISA) (human) (UniProt P08637); experiment: ELISA, plate-bound human FcgRIIIA (receptor named in the legend paragraph 150, not on the sheet), absorbance 450 nm against log(conc. ug/ml)
Sequence of human FcγRIIIA soluble ectodomain (ELISA) (human) (P08637 17-208): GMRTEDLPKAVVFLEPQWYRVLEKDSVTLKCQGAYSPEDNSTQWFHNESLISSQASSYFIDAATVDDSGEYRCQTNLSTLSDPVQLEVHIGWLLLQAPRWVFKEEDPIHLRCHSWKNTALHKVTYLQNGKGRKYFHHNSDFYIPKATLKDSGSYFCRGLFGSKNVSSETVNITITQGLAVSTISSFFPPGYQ

human FcγRIIB (human) [3] = molecular target: human FcγRIIB (human) (UniProt P31994); experiment: SPR, Biacore T200
Sequence of human FcγRIIB (human) (P31994 43-217): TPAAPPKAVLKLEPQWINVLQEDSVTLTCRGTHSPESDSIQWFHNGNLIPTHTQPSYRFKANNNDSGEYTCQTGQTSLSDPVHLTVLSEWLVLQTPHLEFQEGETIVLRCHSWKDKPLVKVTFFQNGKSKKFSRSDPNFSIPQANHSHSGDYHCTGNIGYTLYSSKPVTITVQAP

[4] = molecular target: human FcγRIIIA soluble ectodomain (ELISA) (human) (UniProt P08637); experiment: ELISA, plate-bound human FcgRIIIA soluble ectodomain, absorbance 450 nm against log(conc. ug/ml)
human FcγRIIB (human) [5] = molecular target: human FcγRIIB (human) (UniProt P31994); experiment: ELISA, plate-bound human FcgRIIB soluble ectodomain, absorbance 450 nm against log(conc. ug/ml)
[6] = molecular target: recombinant mouse GITR (plate-bound) (mouse) (UniProt O35714); experiment: ELISA, plate-bound mGITR, antibody at ˜10^3 µg/ml as printed
[7] = molecular target: recombinant mouse GITR (plate-bound) (mouse) (UniProt O35714); experiment: ELISA, plate-bound mGITR, plateau from ˜10-1.5 µg/ml as printed
[8] = molecular target: recombinant mouse GITR (plate-bound) (mouse) (UniProt O35714); experiment: ELISA, plate-bound mouse GITR, delta OD against Log Ab con (ug/ml)

Sequence of recombinant mouse GITR (plate-bound) (mouse) (O35714 20-153 limits assumed): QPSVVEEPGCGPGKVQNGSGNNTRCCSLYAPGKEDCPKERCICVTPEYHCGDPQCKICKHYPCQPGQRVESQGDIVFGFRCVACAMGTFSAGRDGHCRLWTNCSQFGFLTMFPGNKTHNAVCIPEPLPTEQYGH
Sequence of huFcγRIIIA F158 (human) (P08637 17-208 limits assumed): as the sequence (P08637 17-208) above
Sequence of huFcγRIIA R131 (human) (P12318 36-218 H167R limits assumed): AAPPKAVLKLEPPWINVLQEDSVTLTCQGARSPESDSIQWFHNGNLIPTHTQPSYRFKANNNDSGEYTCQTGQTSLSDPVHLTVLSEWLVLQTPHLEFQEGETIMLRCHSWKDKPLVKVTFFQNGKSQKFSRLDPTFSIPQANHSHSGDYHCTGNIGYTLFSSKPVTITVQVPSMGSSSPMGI

Substance | Kd (huFcγRIIA R131 (human)) | Kd (huFcγRIIIA F158 (human)) | EC50 (read off the curve) [1] | Kd (human FcγRIIB (human) [3]) | further results
chimeric anti-mouse GITR antibody (DTA-1 Fab) afucosylated human IgG1 | 1160 nM | 580 nM | 0.02 µg/mL |  | 
chimeric anti-mouse GITR antibody (DTA-1 Fab) afucosylated human IgG1-G236A |  |  | 0.01 µg/mL |  | EC50 (read off the curve) [2]: 0.8 µg/mL
chimeric anti-mouse GITR antibody (DTA-1 Fab) human IgG1-G236A | 120 nM |  | 0.02 µg/mL | 4380 nM | 
chimeric anti-mouse GITR antibody (DTA-1 Fab) human IgG1-GAALIE |  |  | 0.02 µg/mL |  | 
chimeric anti-mouse GITR antibody (DTA-1 Fab) human IgG1-GASDALIE | 50 nM | 2230 nM | 0.01 µg/mL | 230 nM | Fold = KD(IgG1)/KD(Fc region variant) (huFcγRIIA R131 (human)): 24.5 fold; Fold = KD(IgG1)/KD(Fc region variant) (human FcγRIIB (human) [3]): 14 fold; EC50 (read off the curve) [4]: 0.2 µg/mL
chimeric anti-mouse GITR antibody (DTA-1 Fab) human IgG1-N297A |  |  | 0.02 µg/mL |  | 
chimeric anti-mouse GITR antibody (DTA-1 Fab) human IgG1-V11 | 3840 nM |  | 0.02 µg/mL |  | EC50 (read off the curve) (human FcγRIIB (human) [5]): 0.4 µg/mL
chimeric anti-mouse GITR antibody (DTA-1 Fab) with human IgG1 | 1160 nM | 6700 nM | 0.03 µg/mL | 3010 nM | Fold = KD(IgG1)/KD(Fc region variant) (huFcγRIIA R131 (human)): 1 fold; Fold = KD(IgG1)/KD(Fc region variant) (huFcγRIIIA F158 (human)): 1 fold
monospecific mIgG1-N297A anti-mouse GITR antibody (DTA-1 NA) |  |  |  |  | OD450 [6]: 0.6 OD450; OD450 at plateau [7]: 0.9 OD450; EC50 (read off the curve) [8]: 0.004 µg/mL

— US20250179204A1
